# From the RNAGym collection of RNA variant scans (doi:10.1073/pnas.2313332121)
# B1: TPR t1 (parent)
# chain: GACCAAUCUGCCCUCAGAGCUCGAGAACAUCUUCGGAUGCAGAGGAGGCAGGCUUCGGUGGCGCGAUAGCGCCAACGUCCUCAACCUCCAAUGCAUCCCACCACAUGAUGAUGCCUGAAGAGCCUUGGUUUUUUG
# Variants of: B1
# Experiment: polymerase ribozyme fitness, log enrichment relative to wild type (log ratio); higher = more active; in vitro selection for triplet polymerase activity
# In short: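 To select mutant libraries of each subunit of a heterodimeric triplet polymerase ribozyme, built by PCR and transcribed, each was annealed with a biotinylated primer, partner subunit and triplets, then incubated frozen at −7 °C. Extended constructs were gel-excised, captured on streptavidin beads and amplified by RT-PCR, in one round carried out in triplicate. Illumina sequencing of input and output libraries kept genotypes with ≥10 input reads and ≥1 read per output. Fitness is the base-2 logarithm of genotype enrichment relative to wild-type enrichment, from inverse-variance-weighted replicate averages.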
row,Variant,polymerase ribozyme fitness (log ratio)
1,GACCAAUCUGCCCUCAGAGCUCGAGAACAUCUUCGGAUGCAGAAGAGGCAGGCUUCGGUGGCGCGAUAGCGCCAACGACCUCAACCUCCAAUUCAUCCCACCACAUGAUGAUGCCUGAAGAGCCUUGGUUUUUUG [G44A U78A G93U],-1.85
2,GACAAAUCGGCCCUCAGAGCUCGAGAACAUCUUCGGAUGCACAGGAGGCAGGCUUCGGUGGCGCGAUAGCGCCAACGUCCUCAACCUCCAAUGCAUCCCACCACAUGAUGAUGCCUGAAGAGCCUUGGUUUUUUG [C4A U9G G42C],-3.15
3,GACCAAUCUUCCCUCAGAGCUCGAGAACAUCUUCGGAUGCAGAGGAGUCAGGCUUCGGUGGCGCGAUAGCGCCAACGUCCUCAACCUCCAAUGCAUCCCACCACAUGAUGAUGCCUGAAGAGCCUUGGUUUUUUG [G10U G48U],-0.243
4,GACCAAUCUGCCCUCAGAGCUUGAGAACAUCUUCGGAUGCAGAGGAGGCAGGCUGCGGUGGCGCGAUAGCGCCAACGUCCUCAACCUCCAAUGCAUCCCACCACAUGAUGAUGCCUGAAGAGACUUGGUUUUUUG [C22U U55G C123A],-4.35
5,GACCUAUCUGCUCUCAGAGCUCGAGAACAUCUUCGGAUGCAGAGGAGGUAGGCUUCGGUGGCGCGAUAGCGCCAACGUCCUCAACCUCCAAUGUAUCCCACCACAUGAUGAUGCCUGAAGAGCCUUGGUUUUUUG [A5U C12U C49U C94U],-2.22
6,GACCAAUCUGCCCUCACAGCUCGAGAACAUCUUCGGAUGCAGAGGAGGCAGGCUUCGGUGGCGCGAUAGCGCAAACGUCCUCAACCUCCAAUGCAUCCCACCACAUGAUGAUGCCUGAAGAGCCAUGGUUUUUUG [G17C C73A U125A],-5.15
7,GACCAAUCUGGCCUCAGAGCUCGAGAACAUCUUCGGUUGCAGAGGAGGCAGGCUUCGGUUGCGCGAUAGCGCCAACCUCCUCAACCUCCAAUGCAUCCCACCACAUGAUGAUGCCUGAAGAGCCUUGGUUUUUUG [C11G A37U G60U G77C],-1.22
8,GAACAAUCUGCCCUCAGAGCUCGAGAACAUCUUCGGAUGCAGUGGAGGCAGGCUUCGGUCGCGCGAUAGCGCCAACGUCCUGAACCUCCAAUGCAUCCCACCACAUGAUGAUGCCUGAAGAGCCUUGGUUUUUUG [C3A A43U G60C C82G],-5.1
9,GACCAAUCUGCCCUCAGAGCUCGAGAACAUCUUCGGAUGCAGAGGAGGCUGGCUUCGGUGGCGCGAUAGCGCCAACGUCCUCUACCUCCAAUGCAUCCCACCACAUGAUGAUGCCUGAAGAGCCUUGGUUUUAUG [A50U A83U U133A],-0.994
10,GACCAAUCUUCCCUCAGAGCUCGAGAACAUCUUCGGAUGCAGAGGAGGCAGGCUUCGGUGGCGCGAUAGCGCCAACGUCCUCAACCUCCAAUGCAUCCCACCACCUGAUGAUGCCUGAAGAGCCUUGGUUUUUUG [G10U A105C],-2.95
11,GACCAAUCUGCCCUCAGAGCUCGAGAACAUCUUCGGAUGCAGAGGAGGCAGGCUUCGGUGGCGCGAUAGCGACAACGUCCCCAACCUCCAAUGCAUCCCACCACAUGAAUAGGCCUGAAGUGCCAUGGUUUUUUG [C72A U81C U109A G110U U112G A121U U125A],-6.45
12,GACCAAUCUGCCCUCAGAGCUCGAGAACAUCUUCGGAUGCCGAGGAGGCAGGCUUCGGUGGCGCGAUAGCGCGAACGUCCUCAACCUCCAAUGCAUCCCACCACAUGAUGAUGCCUGAAGAGCCUUGGUUUUUUG [A41C C73G],-1.33
13,GACCAAUCUGCCCUCAGAGCUCGAGAACAUCUUCGGAUGCAGAGGAGGCAGGCUUCGGUGGCGCGAUAGAGCCAACGUCCUCAACCUCCAAUGCAUCCCAUCACACGAUGAUGCCUGAAGAGCCUUGGUUUUUUG [C70A C101U U106C],-1.6
14,GACCAAUCUGCCCUCAGAGCUCGAGAACAUCUUCGGAUGCAGAGGAGACAGGCUUCGGUGGCGCGAUAGCGCCAACGUCCUCAAGCUCCAAUGCAUCCCACCACAUGAUGAUGCUUGAAGAGCCUUGGUUUUUUG [G48A C85G C115U],-2.75
15,GACCAAUCUGCCCUCAGAGCUCGAGAACAUCUUCGGAUGCAGAGGAGGCAGGCUUAGGUGGCGCGAUAGCGCCAACGUCCUCAACCUCCAAUGCAUCCCACCACAUGAUCAUGCCUGAAGAGCCUUGGUUUUUUG [C56A G110C],-2.63
16,GACCAAUCUGCCCUCAGAGCUCGAGAACAUCUUCGGAUGCAAAGGAGGCAGGCUUCGGUGGCGCGAUAGCGCCAACGUCCUCAACCUCCAAUGCAUCCCACCACAUGAUUAUGCCUGAAGAGCCUUGGUUUUUUG [G42A G110U],-3.64
17,GACCAAUCUGCCCUCAGAGCUCGAGAACAUCUUCGGAUGCAGAGGAGGCAGGCUUCGGUGACGCGAUAGCGCCAACGUCCUCAACCUCCAAUGCAUCCCACCUCAUGAUGAUCCCUGAAGAGCCUUGGUUUUUUG [G61A A103U G113C],-6.41
18,GACCAAUCUGCCCUCAGAGCUCGAGAACAUCUUCGGAUGCAGAGGAGACAGGCUUCGGUGGCGCGAUAGCGCCAACGUCCUCAACCUCCAAUGCAUCCCACCACAUGAUGAUUCCUGAAUAGCCUUGGUUUUUUG [G48A G113U G120U],-3.65
19,GACCAAUCUGCCCUCAGAGCUCGAGAACAUCUUCGGAUGCAGAGGAGGCAGGCUUCGGUGGCGCGAUAGCGCCAACGUCCUCAACCUCCAAUUCAUUCCACCACAUGAUGAUGCCUGAAGAGCCUUGGUUUUUUG [G93U C97U],-0.996
20,GACCAAUCUGCCCUCAGAGCUCGAGAACAUCUUCGGAUGCAGAGGAGGCAGGCUUCGGUGGCGCGAUAGCACCAACGUCCCCAACCUACAAUGCAUCCCACCACAUGAUGAUGCCUGAAGAGGCUUGGUUUUUUU [G71A U81C C88A C123G G135U],-0.881
21,GACCAAUCUGCCCUCAGAGCUCGAGAACAUCUUCGGAUGCAGAGGAUGCAGGCUUCGGCGGCGCGAUAGCGCCAACGUCCUCAACCUCCAAUGCAUCCCAUCACAUGAUGAUGCCUGAAGAGCCGCGGUUUUUUG [G47U U59C C101U U125G U126C],-3.12
